Data as given in the supplement of paper PMC10567573.

B1: C8orf76 (parent)
chain: KLAEAYLNLGPALSAALASSQKQH

Variants of: B1
Assay: protein stability index of a GFP-peptide fusion (GPS, HEK-293T) (PSI 1-6); higher = more stable
Settings: c terminus: a fixed tail appended
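Further: lentivirally expressed fusions sorted by FACS into six bins by GFP to DsRed ratio, PSI derived from sequencing read proportions per bin multiplied by bin number.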

Variant	protein stability index
KLAEAYLNLGPALSAALAESQKQH [S19E]	2.95
KLAEAYLNLGPALSAAQASSQKQH [L17Q]	2.17
KLAEAYLNLGPALSAAYASSQKQH [L17Y]	1.97
KLAEAYLNLGPALSAAGASSQKQH [L17G]	1.95
KLAEAYLNLGPALSAAMASSQKQH [L17M]	2.69
KLAEAYLNLGPALSAASASSQKQH [L17S]	2.03
KLAEAYLNLGPALSAARASSQKQH [L17R]	2.45
KLAEAYLNLGPALSAAVASSQKQH [L17V]	1.59
KLAEAYLNLGPALSAAPASSQKQH [L17P]	2.76
KLAEAYLNLGPALSAANASSQKQH [L17N]	2.56
KLAEAYLNLGPALSAAIASSQKQH [L17I]	2.16
KLAEAYLNLGPALSAAFASSQKQH [L17F]	2.21
KLAEAYLNLGPALSAAHASSQKQH [L17H]	2.17
KLAEAYLNLGPALSAADASSQKQH [L17D]	2.94
KLAEAYLNLGPALSAACASSQKQH [L17C]	1.6
KLAEAYLNLGPALSAAAASSQKQH [L17A]	1.65
KLAEAYLNLGPALSAATASSQKQH [L17T]	1.95
KLAEAYLNLGPALSAAEASSQKQH [L17E]	2.26
KLAEAYLNLGPALSAAKASSQKQH [L17K]	1.81
KLAEAYLNAGPALSAALASSQKQH [L9A]	4.3
KLAEAYLNKGPALSAALASSQKQH [L9K]	3.11
KLAEAYLNWGPALSAALASSQKQH [L9W]	3.02
KLAEAYLNEGPALSAALASSQKQH [L9E]	2.36
KLAEAYLNPGPALSAALASSQKQH [L9P]	2.75

Variant	protein stability index
KLAEAYLNIGPALSAALASSQKQH [L9I]	3.05
KLAEAYLNFGPALSAALASSQKQH [L9F]	2.56
KLAEAYLNYGPALSAALASSQKQH [L9Y]	2.06
KLAEAYLNCGPALSAALASSQKQH [L9C]	1.36
KLAEAYLNHGPALSAALASSQKQH [L9H]	2.26
KLAEAYLNVGPALSAALASSQKQH [L9V]	1.91
KLAEAYLNRGPALSAALASSQKQH [L9R]	2.61
KLAEAYLNNGPALSAALASSQKQH [L9N]	2.89
KLAEAYLNSGPALSAALASSQKQH [L9S]	1.96
KLAEAYLNGGPALSAALASSQKQH [L9G]	2.68
KLAEAYLNDGPALSAALASSQKQH [L9D]	3.5
KLAEAYLNTGPALSAALASSQKQH [L9T]	2.62
KLAEAYLNQGPALSAALASSQKQH [L9Q]	3.08
KLAEAYLNMGPALSAALASSQKQH [L9M]	2.36
KLAEAYLNLGPALSQALASSQKQH [A15Q]	2.98
KLAEAYLNLGPALSLALASSQKQH [A15L]	3.15
KLAEAYLNLGPALSCALASSQKQH [A15C]	2.3
KLAEAYLNLGPALSIALASSQKQH [A15I]	3.79
KLAEAYLNLGPALSGALASSQKQH [A15G]	2.03
KLAEAYLNLGPALSRALASSQKQH [A15R]	2.34
KLAEAYLNLGPALSTALASSQKQH [A15T]	2.15
KLAEAYLNLGPALSSALASSQKQH [A15S]	1.54
KLAEAYLNLGPALSVALASSQKQH [A15V]	2.31
KLAEAYLNLGPALSHALASSQKQH [A15H]	2.63

Variant	protein stability index
KLAEAYLNLGPALSYALASSQKQH [A15Y]	2.09
KLAEAYLNLGPALSNALASSQKQH [A15N]	1.81
KLAEAYLNLGPALSMALASSQKQH [A15M]	2.94
KLAEAYLNLGPALSPALASSQKQH [A15P]	2.36
KLAEAYLNLGPALSEALASSQKQH [A15E]	2.26
KLAEAYLNLGPALSKALASSQKQH [A15K]	2.27
KLAEAYLNLGPALSWALASSQKQH [A15W]	2.71
KLAEAYLNLGPALSFALASSQKQH [A15F]	2.78
KLAEAYLNLGPALSDALASSQKQH [A15D]	2.32
KLAEAYLNLPPALSAALASSQKQH [G10P]	2.58
KLAEAYLNLKPALSAALASSQKQH [G10K]	2.26
KLAEAYLNLFPALSAALASSQKQH [G10F]	2.51
KLAEAYLNLEPALSAALASSQKQH [G10E]	1.87
KLAEAYLNLRPALSAALASSQKQH [G10R]	1.94
KLAEAYLNLSPALSAALASSQKQH [G10S]	2.51
KLAEAYLNLAPALSAALASSQKQH [G10A]	1.92
KLAEAYLNLVPALSAALASSQKQH [G10V]	2.73
KLAEAYLNLCPALSAALASSQKQH [G10C]	2.66
KLAEAYLNLDPALSAALASSQKQH [G10D]	1.88
KLAEAYLNLNPALSAALASSQKQH [G10N]	2.08
KLAEAYLNLTPALSAALASSQKQH [G10T]	2.12
KLAEAYLNLMPALSAALASSQKQH [G10M]	2.77
KLAEAYLNLWPALSAALASSQKQH [G10W]	1.61
KLAEAYLNLQPALSAALASSQKQH [G10Q]	2.21

Variant	protein stability index
KLAEAYLNLYPALSAALASSQKQH [G10Y]	1.86
KLAEAYLNLIPALSAALASSQKQH [G10I]	3.16
KLAEAYLNLHPALSAALASSQKQH [G10H]	1.96
KLAEAYLNLGPTLSAALASSQKQH [A12T]	1.26
KLAEAYLNLGPILSAALASSQKQH [A12I]	2.25
KLAEAYLNLGPMLSAALASSQKQH [A12M]	2.5
KLAEAYLNLGPRLSAALASSQKQH [A12R]	2.29
KLAEAYLNLGPQLSAALASSQKQH [A12Q]	1.73
KLAEAYLNLGPFLSAALASSQKQH [A12F]	2.73
KLAEAYLNLGPWLSAALASSQKQH [A12W]	1.59
KLAEAYLNLGPSLSAALASSQKQH [A12S]	2.35
KLAEAYLNLGPVLSAALASSQKQH [A12V]	3.4
KLAEAYLNLGPYLSAALASSQKQH [A12Y]	2.82
KLAEAYLNLGPLLSAALASSQKQH [A12L]	2.59
KLAEAYLNLGPELSAALASSQKQH [A12E]	1.96
KLAEAYLNLGPGLSAALASSQKQH [A12G]	1.6
KLAEAYLNLGPNLSAALASSQKQH [A12N]	1.68
KLAEAYLNLGPCLSAALASSQKQH [A12C]	1.82
KLAEAYLNLGPHLSAALASSQKQH [A12H]	2.14
KLAEAYLNLGPDLSAALASSQKQH [A12D]	2.61
KLAEAYLNLGPPLSAALASSQKQH [A12P]	2.2
KLAEAYLNLGPKLSAALASSQKQH [A12K]	2.32
